The results in this text go back to patent US7067277B1, “Chimeric G proteins and uses thereof” (H. Lundbeck A/S, priority 1999, dated 2006).

What all share (type): cell-based
In test [1] the test system is GALR1, Y1, NPFF2, and 5HT1D. Description: Cl- current recording in Xenopus oocytes, C. elegans versus human chimera. On the procedure:
(§1) Oocytes were harvested from Xenopus laevis and injected with mRNA transcripts as previously described (Quick and Lester, 1994; Smith et al., 1997). Receptor and chimeric G protein α subunit RNA transcripts were synthesized using the T7 polymerase (“Message Machine,” Ambion) from linearized plasmids or PCR products containing the complete coding region of the genes. Oocytes were injected with 5–25 ng synthetic receptor RNA and incubated for 3–8 days at 17 degrees. Three to eight hours prior to recording, oocytes were injected with 500 pg chimeric Gα subunit mRNA. Dual electrode voltage clamp (Axon Instruments Inc.) was performed using 3 M KCl-filled glass microelectrodes having resistances of 1–2 MOhm. Unless otherwise specified, oocytes were voltage clamped at a holding potential of −80 mV. During recordings, oocytes were bathed in continuously flowing (1–3 ml/min) medium containing 96 mM NaCl, 2 mM KCl, 1.8 mM CaCl2, 1 mM MgCl2, and 5 mM HEPES, pH 7.5 (ND96). Drugs were applied by local perfusion from a 10 μl glass capillary tube fixed at a distance of 0.5 mm from the oocyte. Experiments were carried out at room temperature. All values are expressed as mean±standard error of the mean.

For test [2], the system named is panel of 36 different GPCRs, including Gαi/i-, Gαs-, and Gαq-coupling receptors. Description: Detection rate in COS-7 calcium mobilization over a GPCR panel. The conditions noted are these: COS-7, single chimera co-transfected with each GPCR. On the procedure: COS-7 cells were cultured in 225 cm^2 flasks in Dulbecco's Modified Eagle Medium (DMEM) with supplements (10% bovine calf serum, 4 mM glutamine, 100 units/ml penicillin and 100 μg/ml streptomycin) at 37° C., 5% CO2. Stock plates of COS-7 cells were trypsinized and split 1:6 every 3–4 days.
GPCR and chimeric G protein cDNAs were transiently transfected into COS-7 cells in 150 cm^2 flasks by the DEAE-dextran method (Cullen, 1987), using a total of 20 μg of DNA/˜7×10^6 cells. For evaluating the function of a single chimeric G protein, the standard cDNA transfection ratio was 1:1 (10 μg GPCR cDNA and 10 μg chimeric G protein cDNA). […]
Twenty four hours after transient transfection, COS-7 cells were seeded into 96-well black wall microtiter plates coated with poly-D-lysine for assay the following day. […] Basal fluorescence was monitored in a fluorometric imaging plate reader (FLIPR™, Molecular Devices) with an excitation wavelength of 488 nm and an emission range of 500 to 560 nm. Laser excitation energy was adjusted so that basal fluorescence readings were approximately 10,000 relative fluorescent units. Cells were stimulated with agonists diluted in assay buffer (50 μl), and relative fluorescent units were measured at defined intervals (exposure=0.4 sec) over a 3 min period at room temperature. Maximum change in fluorescence was calculated for each well. […]

In a further test the target is T1, h NPFF2 (Homo sapiens, UniProt Q9Y5X5).
T1 construct: expressed in transfected cells; host or cells: COS-7
Briefly: Calcium mobilization (FLIPR, Fluo-3) in transfected COS-7 cells. The conditions noted are these: h NPFF2 + chimera in COS-7; agonist NPFF, max 10 μM. The procedure, abridged:
(§2)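 Calcium responses to agonist were measured in COS-7 cells co-expressing each receptor with Gαq/z and/or Gαq/s chimeras, using Fluo-3 dye and FLIPR detection over 3 min at room temperature.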
Background: Calcium assays in cells follow changes in intracellular calcium, usually with a dye or a luminescent sensor.

The target in another test is T2, r GALR1 (Rattus norvegicus, UniProt Q62805).
T2 sequence (Q62805 1-346): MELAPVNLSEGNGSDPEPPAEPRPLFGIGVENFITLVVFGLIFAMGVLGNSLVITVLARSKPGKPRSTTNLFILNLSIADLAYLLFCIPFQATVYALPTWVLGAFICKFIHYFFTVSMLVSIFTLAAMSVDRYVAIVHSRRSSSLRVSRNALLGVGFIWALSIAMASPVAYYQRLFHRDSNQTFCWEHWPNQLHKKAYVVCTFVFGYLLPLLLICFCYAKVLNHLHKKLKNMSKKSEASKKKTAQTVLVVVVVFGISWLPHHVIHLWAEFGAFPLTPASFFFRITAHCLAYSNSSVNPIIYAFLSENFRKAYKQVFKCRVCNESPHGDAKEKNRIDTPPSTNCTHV
The test is described as above. The conditions noted are these: r GALR1 + chimera in COS-7; agonist GAL, max 10 μM. The procedure, abridged:
as §2

Another test deals with T3, h GALR3 (Homo sapiens, UniProt O60755).
T3 sequence (O60755 1-368): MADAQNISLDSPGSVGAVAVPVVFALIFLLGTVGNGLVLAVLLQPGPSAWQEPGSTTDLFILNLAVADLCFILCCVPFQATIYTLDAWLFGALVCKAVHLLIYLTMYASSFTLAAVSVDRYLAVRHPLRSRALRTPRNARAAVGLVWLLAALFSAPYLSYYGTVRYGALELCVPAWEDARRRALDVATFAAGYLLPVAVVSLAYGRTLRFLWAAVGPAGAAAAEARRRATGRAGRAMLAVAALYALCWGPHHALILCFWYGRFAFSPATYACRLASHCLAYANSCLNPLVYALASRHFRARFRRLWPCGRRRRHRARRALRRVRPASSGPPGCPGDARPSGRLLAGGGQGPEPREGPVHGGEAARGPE
The description is as above. The conditions noted are these: h GALR3 + chimera in COS-7; agonist GAL, max 10 μM. The procedure, abridged:
as §2

Another test has as its target h β2 adr (Homo sapiens, UniProt P07550). Described as above. The conditions noted are these: h β2 adr + chimera in COS-7; agonist NE, max 100 μM. Put shortly:
as §2

The next test deals with T4, h Y4 (Homo sapiens, UniProt P50391).
T4 construct: expressed in transfected cells; host or cells: COS-7
The description is as above. As to conditions: h Y4 + chimera in COS-7; agonist PP, max 10 μM. Put shortly:
as §2

For a further test, the target named is T5, Rat GALR1 (Rattus norvegicus, UniProt Q62805).
T5 construct: linearized plasmids or PCR products containing the complete coding region of the genes; expressed in transfected cells; host or cells: Xenopus laevis oocytes (receptor cRNA injected)
T5 sequence (Q62805 1-346): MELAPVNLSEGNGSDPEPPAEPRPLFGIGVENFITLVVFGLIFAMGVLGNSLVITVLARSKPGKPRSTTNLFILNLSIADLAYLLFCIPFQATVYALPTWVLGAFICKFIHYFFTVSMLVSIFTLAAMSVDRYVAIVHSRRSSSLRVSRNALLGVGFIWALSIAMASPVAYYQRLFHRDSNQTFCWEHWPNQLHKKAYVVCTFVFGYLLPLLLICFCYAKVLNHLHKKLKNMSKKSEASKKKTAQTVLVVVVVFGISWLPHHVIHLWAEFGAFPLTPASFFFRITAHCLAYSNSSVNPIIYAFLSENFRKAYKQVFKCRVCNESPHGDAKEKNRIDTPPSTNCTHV
Briefly: Cl- current recording in Xenopus oocytes expressing GPCR and chimeric G protein. As to conditions: Xenopus oocytes expressing Rat GALR1 and chimera; mean ± s.e.m. As to the method:
as §1

In a further test the target is T6, Human NPFF2 (Homo sapiens, UniProt Q9Y5X5).
T6 construct: linearized plasmids or PCR products containing the complete coding region of the genes; expressed in transfected cells; host or cells: Xenopus laevis oocytes (receptor cRNA injected)
The description is as above. As to conditions: Xenopus oocytes expressing Human NPFF2 and chimera; mean ± s.e.m. On the procedure: as §1

T4 sequence (P50391 whole entry): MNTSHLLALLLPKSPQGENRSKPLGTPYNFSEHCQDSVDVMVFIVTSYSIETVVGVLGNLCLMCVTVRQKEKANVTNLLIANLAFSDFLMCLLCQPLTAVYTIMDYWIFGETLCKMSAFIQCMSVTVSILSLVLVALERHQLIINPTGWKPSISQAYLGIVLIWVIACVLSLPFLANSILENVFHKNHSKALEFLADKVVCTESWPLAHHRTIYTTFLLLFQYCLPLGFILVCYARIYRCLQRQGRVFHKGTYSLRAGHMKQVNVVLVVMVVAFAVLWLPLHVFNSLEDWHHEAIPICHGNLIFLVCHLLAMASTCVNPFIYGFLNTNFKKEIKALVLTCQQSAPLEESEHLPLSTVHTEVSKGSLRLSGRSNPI
T1 sequence (Q9Y5X5 103-522 limits assumed): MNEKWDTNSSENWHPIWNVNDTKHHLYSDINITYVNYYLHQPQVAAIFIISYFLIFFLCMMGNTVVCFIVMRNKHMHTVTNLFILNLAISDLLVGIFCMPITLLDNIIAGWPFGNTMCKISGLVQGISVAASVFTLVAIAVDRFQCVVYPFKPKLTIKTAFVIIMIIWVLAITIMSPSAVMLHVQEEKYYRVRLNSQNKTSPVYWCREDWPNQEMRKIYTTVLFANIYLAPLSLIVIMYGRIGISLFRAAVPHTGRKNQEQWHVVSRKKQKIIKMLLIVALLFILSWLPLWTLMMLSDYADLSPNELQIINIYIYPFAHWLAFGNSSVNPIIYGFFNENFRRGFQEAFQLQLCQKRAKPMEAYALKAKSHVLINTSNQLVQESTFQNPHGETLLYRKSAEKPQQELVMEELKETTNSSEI
T6 sequence (Q9Y5X5 103-522): as the sequence (Q9Y5X5 103-522 limits assumed) above

B1: cGαq/z5: chimeric Gα subunit: C-terminal final 5 amino acids of C. elegans Gαq replaced with those of hGαz (SEQ ID NO: 1) (protein)
chain: MACCLSEEAREQKRINQEIEKQLQRDKRNARRELKLLLLGTGESGKSTFIKQMRIIHGQGYSEEDKRAHIRLVYQNVFMAIQSMIRAMDTLDIKFGNESEELQEKAAVVREVDFESVTSFEEPYVSYIKELWEDSGIQECYDRRREYQLTDSAKYYLSDLRRLAVPDYLPTEQDILRVRVPTTGIIEYPFDLEQIIFRMVDVGGQRSERRKWIHCFENVTSIMFLVALSEYDQVLVECDNENRMEESKALFRTIITYPWFTNSSVILFLNKKDLLEEKILYSHLADYFPEYDGPPRDPIAAREFILKMFVDLNPDADKIIYSHFTCATDTENIRFVFAAVKDTILQHNLKYIGLC
modifications: C. elegans
On to B1, for which, in [1], the “increase in response over currents from oocytes expressing the human version of the chimera” value is on record as 2–3 fold. For the same molecule, the “receptors generating positive signals (>500 fluorescence units) / receptors tested” value in [2] is reported as 28/36. The “MAXIMAL SIGNAL (FLUORESCENCE UNITS)” value with h NPFF2 was determined as 7566 fluorescence units; in the test with r GALR1, 3086 fluorescence units; with h GALR3, 1523 fluorescence units; in the test with h β2 adr, 1842 fluorescence units; in the test with h Y4, 9422 fluorescence units. The “Response amplitudes (nA) in oocytes” value with Rat GALR1 was 91 ± 38 nA; with Human NPFF2, 1121 ± 261 nA.

B2: cGαq/z9: C. elegans Gαq with Gαz portion of the C-terminal tail extended to 9 amino acids (SEQ ID NO: 2) (protein)
chain: MACCLSEEAREQKRINQEIEKQLQRDKRNARRELKLLLLGTGESGKSTFIKQMRIIHGQGYSEEDKRAHIRLVYQNVFMAIQSMIRAMDTLDIKFGNESEELQEKAAVVREVDFESVTSFEEPYVSYIKELWEDSGIQECYDRRREYQLTDSAKYYLSDLRRLAVPDYLPTEQDILRVRVPTTGIIEYPFDLEQIIFRMVDVGGQRSERRKWIHCFENVTSIMFLVALSEYDQVLVECDNENRMEESKALFRTIITYPWFTNSSVILFLNKKDLLEEKILYSHLADYFPEYDGPPRDPIAAREFILKMFVDLNPDADKIIYSHFTCATDTENIRFVFAAVKDTILQNNLKYIGLC
modifications: C. elegans
With B2, in test [2], the “receptors generating positive signals (>500 fluorescence units) / receptors tested” value was 29/36. Moreover, the “MAXIMAL SIGNAL (FLUORESCENCE UNITS)” value with h NPFF2 is on record as 4578 fluorescence units; with r GALR1, 5947 fluorescence units; with h GALR3, 2050 fluorescence units; with h β2 adr, 1697 fluorescence units; with h Y4, 7397 fluorescence units.
